{
  "source": "paper PMC5708649",
  "about": "“A novel Porphyromonas gingivalis enzyme: An atypical dipeptidyl peptidase III with an ARM repeat domain” (PLoS ONE, 2017)",
  "molecules": {"B1": {"name": "PgDPP III: full-length dipeptidyl peptidase III from P. gingivalis W83 (PG_0317), 886 aa (protein)", "chain": "MTKETTQHRSGERIARFADIEVLSYRADLFGTLTPKQRMLCYHLSEAALRGRDITTIQNCRYNLWVRSLMERIYTHLSKSERTDDFALLEEYLFCIWFANGIHHHYSGAKFIARFSPGFLRAALREAGVELEPEEQVLLERVLYDTDFLPKQTEQSGEEDIIKASSVNFYAPGITRAEAESHYKNLIEALPENEKSCPPSFGLNTRLIRSTSGELKDEVCCIDGLYGPAIEAVVASLEAAIPYTENEEQAACIRLLCDYYRTGDIRLYDRFCIRWVENNRTRIDFINGFTEVYADPIGIHGSWEGLVHMQDEEAGRRTRIISEHAGWFEAHSPIDARFRKKNPHGISATVVNVLTIAGDSYPATPIGINLPNADWIRAEHGSKSVTIDNITDAYNHAARGTGLYEEFIPDEEVRRHVELHADLTDSLHTDLHECLGHGSGQLLPGVPGDALGEHASTLEETRADLFALYFLADPKMIELGLLTDPDAYKANYYKYMLNGLMTQLVRIKRGEEIEEAHMRNRALIARYVLEHAERPGAMSLVCEEGKTALVIKDYEAVRAIIAGLLTEVQRIKSEGDYTAGKALVERYAVHVDPLLHEEVLTRYAKLDIAPYKGFVNPRLRPVYNSEGRLTDATIEYTEGYAEQMLRYSAEYSFLPTDSPLLQEARRLRSHLRRAMDGVLSASMREKGLHYGINFGVTREHLLRLARTADASAPLADYLWRRDVRETKILATMIFPAEELTHEQATRLLREADNVELREQLTANLLERMPEAIRSIGRWIESKETTPDMMTGVLTLAARLFTRGIFPEDVPAEKLLTLAILHLSDEEQKAELRRASALLLKRYGRGSAERTKKVLCLLPESSQDTAPVLYELCEDIRFELDFYPKDE", "modifications": "left off: His tag, C-terminal, state not stated"}},
  "key": {"[1]": {"tested_on": "E. coli BK2118 (tag, alkA)", "assay": "MMS complementation assay", "type": "cell-based, Escherichia coli", "conditions": "pUC18 constructs, 1 mM to 5 mM MMS plates, 2 days, 37°C"}, "[2]": {"assay": "Thermal denaturation by circular dichroism", "type": "physicochemical", "conditions": "thermal denaturation curves, CD", "description": "Secondary structure and temperature stability of recombinant proteins were determined by recording circular dichroism spectra (CD) on a Jasco J-815 spectropolarimetar (JASCO, Easton, MD, USA) with automatic temperature control according to Jajčanin-Jozić et al.. Analysis of protein secondary structure from CD spectra was performed by using the CDSSTR program at the DICHROWEB site (http://public-1.cryst.bbk.ac.uk/cdweb/html). Protein concentrations were determined by the Bradford method."}},
  "data": [
    {"molecule": "B1", "values": [
      {"measurement": "rescue of alkylation-sensitive phenotype / alkylation repair function (in words)", "setting": "[1]", "result": "absence of any alkylation repair function"},
      {"measurement": "rescue of alkylation-sensitive phenotype / alkylation repair function (in words)", "setting": "[1]; listed as full length PgDPP III", "result": "does not possess alkylation repair function"},
      {"measurement": "Tm", "setting": "[2]", "result": 50, "unit": "°C"}
    ]}
  ]
}
